Results from the FLAb antibody collection (doi:10.7554/elife.23156).

B1: scFv; the commonest letter at each place (parent)
chain 1: EVKLDETGGGLVQPGRPMKLSCVASGFTFSDYWMNWVRQSPEKGLEWVAQIRNKPYNYETYYSDSVKGRFTISRDDSKSSVYLQMNNLRVEDMGIYYCTGSYYGMDYWGQGTSVTVS
chain 2: DVVMTQTPLSLPVSLGDQASISCRSSQSLVHSNGNTYLRWYLQKPGQSPKVLIYKVSNRFSGVPDRFSGSGSGTDFTLKISRVEAEDLGVYFCSQSTHVPWTFGGGTKLEIK

Experiments:
fluorescein = variants of: B1; test: Kd (Tite-Seq); conditions: with fluorescein; format: scFv 4-4-20, heavy + light
[1] = variants of: B1; test: yeast surface expression (ratio to wild type); higher = more expressed; conditions: format: scFv 4-4-20, heavy + light

Row | Variant | Kd (fluorescein) [µM] | yeast surface expression [1]
1 | chain 1 S30F | 0.00205 | 0.828
2 | chain 1 S30W | 0.00215 | 0.701
3 | chain 1 S30A | 0.000803 | 1.08
4 | chain 1 G104L W108R | ≥ 10 | 0.278
5 | chain 1 Y32H V37Q | ≥ 10 | 0.372
6 | chain 1 T28L W33Y | ≥ 10 | 0.826
7 | chain 1 F29E D31R | ≥ 10 | 0.624
8 | chain 1 Y103P W108M | ≥ 10 | 0.463
9 | chain 1 D31E V37L | ≥ 10 | 0.735
10 | chain 1 T28K W36R | 0.0507 | 0.393
11 | chain 1 G100N Y107V | ≥ 10 | 0.691
12 | chain 1 F29Q V37A | 5.66 | 0.847
13 | chain 1 Y107D W108C | ≥ 10 | 0.269
14 | chain 1 Y102E G109K | ≥ 10 | 0.317
15 | chain 1 Y102F M105C W108T | ≥ 10 | 0.419
16 | chain 1 S30I M34P | ≥ 10 | 0.36
17 | chain 1 S101H G109V | ≥ 10 | 0.231
18 | chain 1 S101P Y107F W108F | ≥ 10 | 0.239
19 | chain 1 F29I Y32G | ≥ 10 | 1.08

Row | Variant | Kd (fluorescein) [µM] | yeast surface expression [1]
20 | chain 1 N35V W36M | ≥ 10 | 0.488
21 | chain 1 G104S | ≥ 10 | 0.799
22 | chain 1 Y102M Y103E | ≥ 10 | 1.26
23 | chain 1 Y102R Y103P | ≥ 10 | 0.979
24 | chain 1 Y103M M105N | 1.14 | 1.52
25 | chain 1 M34R V37Q | 0.205 | 0.276
26 | chain 1 Y32G N35V | ≥ 10 | 0.513
27 | chain 1 G104M G109L | ≥ 10 | 0.0989
28 | chain 1 G100K D106C | ≥ 10 | 0.0988
29 | chain 1 T28P M34S | 0.0154 | 0.95
30 | chain 1 F29I W33H | ≥ 10 | 0.763
31 | chain 1 F29T S30D M34V | ≥ 10 | 0.837
32 | chain 1 S30Y M34A | 0.0534 | 0.483
33 | chain 1 S30F W36D | ≥ 10 | 0.448
34 | chain 1 G100R M105Y W108P | ≥ 10 | 0.298
35 | chain 1 Y102D M105I | ≥ 10 | 1.08
36 | chain 1 Y103D G109H | ≥ 10 | 0.441
37 | chain 1 S101V G109P | ≥ 10 | 0.223
38 | chain 1 F29N S30E | 0.0391 | 1.07

Row | Variant | Kd (fluorescein) [µM] | yeast surface expression [1]
39 | chain 1 F29Y S30A D31M | 0.216 | 0.826
40 | chain 1 N35I V37M | ≥ 10 | 0.626
41 | chain 1 Y103S | 0.0318 | 1.05
42 | chain 1 Y103D | 0.0445 | 1.21
43 | chain 1 D106I W108N | ≥ 10 | 0.254
44 | chain 1 M105Y G109S | 0.0507 | 0.936
45 | chain 1 Y102I Y103W | 0.0015 | 1.15
46 | chain 1 Y102H G104F | ≥ 10 | 0.598
47 | chain 1 F29P M34C | ≥ 10 | 0.755
48 | chain 1 G100L S101M | ≥ 10 | 0.474
49 | chain 1 Y102Q G109D | ≥ 10 | 0.485
50 | chain 1 S30L W33D | ≥ 10 | 0.844
51 | chain 1 Y103A W108E | ≥ 10 | 0.603
52 | chain 1 G100W Y107D G109L | ≥ 10 | 0.227
53 | chain 1 T28W W33F W36P | ≥ 10 | 0.554
54 | chain 1 Y103I D106W | ≥ 10 | 0.188
55 | chain 1 M105W W108V | 0.000454 | 0.756
56 | chain 1 M105V W108C | 6.61 | 0.461
57 | chain 1 S30Y N35C | ≥ 10 | 0.686
